# B1: L3-11Y: light chain SEQ ID NO: 73 (serine 27e replaced with tryptophan) and the heavy chain of huAbF46-H4-A1 (IgG2 Fc) (antibody)
# heavy: EVQLVESGGGLVQPGGSLRLSCAASGFTFTDYYMSWVRQAPGKGLEWLGFIRNKANGYTTEYSASVKGRFTISRDNSKNTLYLQMNSLRAEDTAVYYCARDNWFAYWGQGTLVTVSSASTKGPSVFPLAPCSRSTSESTAALGCLVKDYFPEPVTVSWNSGALTSGVHTFPAVLQSSGLYSLSSVVTVPSSNFGTQTYTCNVDHKPSNTKVDKTVERKCCVECPPCPAPPVAGPSVFLFPPKPKDTLMISRTPEVTCVVVDVSHEDPEVQFNWYVDGVEVHNAKTKPREEQFNSTFRVVSVLTVVHQDWLNGKEYKCKVSNKGLPAPIEKTISKTKGQPREPQVYTLPPSREEMTKNQVSLTCLVKGFYPSDIAVEWESNGQPENNYKTTPPMLDSDGSFFLYSKLTVDKSRWQQGNVFSCSVMHEALHNHYTQKSLSLSPGK
# light: DIQMTQSPSSLSASVGDRVTITCKSSQSLLAWGNQNNYLAWYQQKPGKAPKMLIIWASTRVSGVPSRFSGSGSGTDFTLTISSLQPEDFATYYCQQSYSRPYTFGQGTKVEIKRTVAAPSVFIFPPSDEQLKSGTASVVCLLNNFYPREAKVQWKVDNALQSGNSQESVTEQDSKDSTYSLSSTLTLSKADYEKHKVYACEVTHQGLSSPVTKSFNRGEC
# Columns and labels:
# c-Met in MKN45 cells = target: T1, c-Met in MKN45 cells (Homo sapiens, UniProt P08581); experiment: Degree of degradation of c-Met (total c-Met ELISA); assay type: cell-based; details: 5 ug/ml, 24 hours, FIG. 9B
# T1 construct: MKN45 gastric cancer cells on which c-Met is expressed; endogenous in cells; host or cells: MKN45 gastric cancer cells (JCRB)
# T1 sequence (P08581 25-1390): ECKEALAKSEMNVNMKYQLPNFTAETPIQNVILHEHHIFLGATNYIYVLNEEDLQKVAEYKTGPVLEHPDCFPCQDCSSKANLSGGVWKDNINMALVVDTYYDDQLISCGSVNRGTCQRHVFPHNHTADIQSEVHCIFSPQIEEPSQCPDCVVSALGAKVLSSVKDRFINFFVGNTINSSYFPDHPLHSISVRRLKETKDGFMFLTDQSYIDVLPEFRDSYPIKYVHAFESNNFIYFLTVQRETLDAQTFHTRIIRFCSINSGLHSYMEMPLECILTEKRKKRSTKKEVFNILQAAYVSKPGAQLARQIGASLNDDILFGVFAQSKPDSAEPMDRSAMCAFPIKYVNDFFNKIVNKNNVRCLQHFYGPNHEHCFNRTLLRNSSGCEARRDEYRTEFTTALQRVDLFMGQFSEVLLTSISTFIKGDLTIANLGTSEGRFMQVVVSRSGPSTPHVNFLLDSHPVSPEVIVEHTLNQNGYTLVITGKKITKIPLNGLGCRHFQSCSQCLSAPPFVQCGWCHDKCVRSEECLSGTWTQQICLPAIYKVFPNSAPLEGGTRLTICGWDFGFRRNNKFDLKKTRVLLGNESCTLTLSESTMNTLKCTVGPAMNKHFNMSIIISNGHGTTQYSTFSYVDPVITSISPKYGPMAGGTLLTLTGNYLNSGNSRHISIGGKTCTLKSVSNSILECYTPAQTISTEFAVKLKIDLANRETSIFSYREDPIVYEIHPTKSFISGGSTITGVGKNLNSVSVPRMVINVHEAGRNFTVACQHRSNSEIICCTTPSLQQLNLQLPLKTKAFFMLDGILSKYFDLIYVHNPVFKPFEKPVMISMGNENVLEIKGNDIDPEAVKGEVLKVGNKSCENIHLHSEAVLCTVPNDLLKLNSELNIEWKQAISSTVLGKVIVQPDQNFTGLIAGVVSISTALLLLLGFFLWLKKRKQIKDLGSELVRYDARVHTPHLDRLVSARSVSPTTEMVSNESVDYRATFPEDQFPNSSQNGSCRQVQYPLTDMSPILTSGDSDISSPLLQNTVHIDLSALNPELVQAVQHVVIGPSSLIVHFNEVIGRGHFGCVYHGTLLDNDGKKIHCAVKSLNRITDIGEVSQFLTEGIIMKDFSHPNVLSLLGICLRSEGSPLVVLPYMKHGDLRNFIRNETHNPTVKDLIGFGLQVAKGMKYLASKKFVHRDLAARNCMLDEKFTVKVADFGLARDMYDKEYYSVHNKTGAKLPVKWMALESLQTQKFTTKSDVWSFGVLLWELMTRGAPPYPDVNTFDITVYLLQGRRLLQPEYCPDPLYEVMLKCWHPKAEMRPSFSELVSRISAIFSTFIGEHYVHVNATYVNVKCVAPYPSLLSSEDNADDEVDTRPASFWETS
# Protocol: In order to identify anti-cancer effects of the 4 types of antibodies having improved affinities, as prepared in Example 5, the degree of degradation of c-Met bound to the antibodies was evaluated. A relative total amount of c-Met was obtained by measuring the change in the total amount of c-Met after the antibody binds to c-Met to degrade c-Met via internalization, and thus the efficacy of the antibody was evaluated.
# (§1) MKN45 cells (2×10^5 cells/ml) and each of the antibodies (5 ug/ml) were simultaneously introduced to a 96-well plate and incubated for 24 hours. Then, lysis of the cells treated with antibodies was performed and the change in the total amount of c-Met was measured using a Human total HGF R/c-Met ELISA KIT (R&D systems, DYC358) and analyzed.
# as §1, with “In order to identify anti-cancer effects of the 3 types of antibodies having improved affinities, as prepared in Example 11, the degree of degradation of c-Met bound to the antibody was evaluated. MKN45” for “MKN45”, “and a” for “and the”, “change of” for “change in”
# [1] = tested on: Akt phosphorylation in Caki-1 cells; experiment: Akt phosphorylation (phospho-AKT1 Ser473 sandwich ELISA); assay type: cell-based; details: 5 ug/ml, FIG. 8B
# From the text: Cellular processes regulated by Akt include cell proliferation, cell survival, cell size control, and response to nutrient availability, intermediary metabolism, angiogenesis, and tissue invasion. All these processes represent characteristics of cancer and many oncoproteins and tumor suppressors intersect in the Akt pathway, finely regulating cellular functions at the interface of signal transduction and classical metabolic regulation. Thus, as the content of phosphorylated Akt that is an active form increases, the activity of cancer cells increases. Here, the degree of inhibiting Akt phosphorylation by the 4 types of antibodies having improved affinities was evaluated.
# To compare agonism of the 4 types of antibodies having improved affinities, as prepared in Example 5, Caki-1 cells (Korean Cell Line Bank) were used to confirm the degree of Akt phosphorylation. Mouse IgG was used as a negative control, and antibody 5D5 (a known agonist) was used as a positive control.
# 2×10^5 cells/ml of Caki-1 cells were introduced to a 96-well plate, and after 24 hours, each of 5 ug/ml of the antibodies was treated in serum free medium for 30 minutes. Lysis of the cells treated with the antibodies was performed and the degree of Akt phosphorylation was measured using a PathScan phospho-AKT1 (Ser473) chemiluminescent Sandwich ELISA kit (Cell Signaling, cat. no #7134S). […]
molecule,measurement,setting,value
B1,activity of c-Met degradation compared to huAbF46-H4-A1 (IgG2 Fc),c-Met in MKN45 cells,approximately equal activity of c-Met degradation
same,activity of Akt phosphorylation inhibition compared to huAbF46-H4-A1 (IgG2 Fc),[1],equal or higher activity of Akt phosphorylation inhibition
